According to patent publication US20170305985A1 (Stanford University, published 2017):

Target: Met receptor on Madine-Darby canine kidney (MDCK) cells (canine (MDCK cells), UniProt Q75ZY9 25-1382)
Assay: cell-based or functional assay

B1: recombinant soluble Aras-4 (ligand)
chain: YAEGQGKRRNTIHEFKKSAKTTLIKIDPALRIKTEKANTADQCANRCTRSKGLPFTCKAFVFDKARKRCLWFPFNSMSSGVKKEFGHEFDLYENKAYIRDCIIGRGRNYRGTVSITKSGIKCQPWSAMIPHEHSFLPSSYRGEDLRENYCRNPRGEEGGPWCYTSDPEVRYEVCDIPQCSEVE
inhibition of HGF-induced activation of Met, MDCK cells: ~5 fold lower concentration
